{"source": "the nanobody polyreactivity screen of Harvey et al. (2022)", "data": [{"experiment": "yeast display, Sf9 membrane polyspecificity reagent, FACS + sequencing; frameworks hold sequencing errors", "in_short": "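Galactose-induced (36–48 hours) yeast carrying a synthetic nanobody display library were exposed to 10% biotinylated, detergent-solubilized Sf9 membrane reagent at 4 °C for 1 hour. FACS followed streptavidin microbead enrichment, using low and high (top ~1%) gates for expression (anti-HA) and reagent binding (streptavidin). Colony PCR, MiSeq 2 × 250 sequencing and CDR-length filtering followed. Labels for polyreactivity reflect the gate of origin.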", "values": [{"sequence": "QVQLVESGGGLVQAGGSLRLSCAASGSIFGTYAMGWYRQALGKERELVASIRFNGRTFYADSVKGRFTISRDNAKNTVYLQMNSLKPEDTAVYYCAAQTWYGFPNYYWGQGTQVTVSS", "polyreactivity (PSR sort gate)": "high polyreactivity"}, {"sequence": "QVQLVESGGGLVQAGGSLRLSCAASGSIFGTYAMGWYRQAPGKEREFVADISGIGTSTYYADSVKGRFTISRDNAKNTVYLQMNSLKPEDTAVYYCAACYPPLRGYYYWGQGTQVTVSS", "polyreactivity (PSR sort gate)": "low polyreactivity"}, {"sequence": "QVQLVESGGGLVQAGGSLRLSCAASGSIFGTYAMGWYRQAPGKERELVARISGGGSTYYADSVKGRFTISRDNAKNTVYLQMNSLKPEDTAVYYCNVRKWAYWSHAIIYNYWGQGTQVTVSS", "polyreactivity (PSR sort gate)": "high polyreactivity"}, {"sequence": "QVQLVESGGGLVQAGGSLRLSCAASGSIFGVNAMGWYRQAPGKERELVAAISSSTGRTYYADSVKGRFTISRDNAKNTVYLQMNSLKPEDTAVYYCAADFTSYRRGWTYGYWGQGTQVTVSS", "polyreactivity (PSR sort gate)": "high polyreactivity"}, {"sequence": "QVQLVESGGGLVQAGGSLRLSCAASGSIFGVNAMGWYRQAPGKERELVASITGGDSTNYADSVKGRFTISRDNAKNTVYLQMNSLKPEDTAGYYCAKDHYYRYEEGDYWGQGTQVTVSS", "polyreactivity (PSR sort gate)": "low polyreactivity"}, {"sequence": "QVQLVESGGGLVQAGGSLRLSCAASGSIFGVYAMGWYRQAPGKERELVAAIDSGSSTDYADSVKGRFTISRDNAKNTVYLQMNSLKPEDTAVYYCYPLDLAPVDYWGQGTQVTVSS", "polyreactivity (PSR sort gate)": "low polyreactivity"}, {"sequence": "QVQLVESGGGLVQAGGSLRLSCAASGSIFGWNAMGWYRQAPGKERELVAAISSGGSTYYADSVKGRFTISRDNAKNTVYLQMNSLKPQDTAVYYCNAFFQYYDYWGQGTQVTVSS", "polyreactivity (PSR sort gate)": "low polyreactivity"}, {"sequence": "QVQLVESGGGLVQAGGSLRLSCAASGSIFGWYAMGWYRQAPGKERELVAAISWDGGDTYYADSVKGRFTISRDNAKNTVYLQMNSLKPEDTAVYYCAAELGYYDYGSYYSYDYWGQGTQVTVSS", "polyreactivity (PSR sort gate)": "high polyreactivity"}, {"sequence": "QVQLVESGGGLVQAGGSLRLSCAASGSIFGWYGMGWYRQAPGKERELVAAINWGGTNTYYADSVKGRFTISRDNAKNTVYLQMISLKPEDTAVYSCNADIPRRPNRHYLYDYWGQATQVTVSS", "polyreactivity (PSR sort gate)": "low polyreactivity"}, {"sequence": "QVQLVESGGGLVQAGGSLRLSCAASGSIFGWYVMGWYRQAPGKERELVAAISSGGSTNYADSVKGRFTISRDNAKNTVYLQMNSLKPEDTAVYYCAKRFRRTPYRNTYKPYDRYYWGQGTQVTVSS", "polyreactivity (PSR sort gate)": "high polyreactivity"}, {"sequence": "QVQLVESGGGLVQAGGSLRLSCAASGSIFGYNAMGWYRQAPGKEREFVAAITSGGSTYYADSVKGRFTISRDNAKNTVYLQMNSLKPEDTAVYYCRRRNVDSTRRYDYWGQGTQVTVSS", "polyreactivity (PSR sort gate)": "high polyreactivity"}, {"sequence": "QVQLVESGGGLVQAGGSLRLSCAASGSIFGYNAMGWYRQAPGKERELVAAINYNGGRTYYADSVKGRFTISRDNAKNTVYLQMNSLKPEDTAVYYCNKVYLRTSGRDYWGQGTQVTVSS", "polyreactivity (PSR sort gate)": "high polyreactivity"}, {"sequence": "QVQLVESGGGLVQAGGSLRLSCAASGSIFGYNAMGWYRQAPGKERELVAAISSSGSSTYADSVKGRFTISRDNAKNTVYLQMNSLKPEDTAVYYCNKTTLLTVEYDYWGQGTQVTVSS", "polyreactivity (PSR sort gate)": "low polyreactivity"}, {"sequence": "QVQLVESGGGLVQAGGSLRLSCAASGSIFGYNAMGWYRQAPGKERELVAAISYSGGRTYYADSVKGRFTISRDNAKHTVYFQKNRLKPEDTAVYYCAKYKVGYVPSGYRYDSWGQGTQVTVSS", "polyreactivity (PSR sort gate)": "high polyreactivity"}, {"sequence": "QVQLVESGGGLVQAGGSLRLSCAASGSIFGYNTMGWYRQAPGKERELVAAISRGGSTNYADSVKGRFTISRDNAKNTVYLQMNSLKPEDTAVYYCAKRRWRQTTYSKGYDYWGQGTQVTVSS", "polyreactivity (PSR sort gate)": "high polyreactivity"}, {"sequence": "QVQLVESGGGLVQAGGSLRLSCAASGSIFGYNVMGWYRQAPGKERDLVAAITYSGGSTYYADSVKGRFTISRDNAKNTVYLQMNSLKPEDTAVYYCAKVTGRRFPAYGYDHWGQGTQVTVSS", "polyreactivity (PSR sort gate)": "high polyreactivity"}, {"sequence": "QVQLVESGGGLVQAGGSLRLSCAASGSIFGYNVMGWYRQAPGKERELVAAISSSTGSTNYADSVKGRFTISRDNAKNTVYLQMNSLKPEDTAVYYCAVDPYVHWTTKLYDYWGQGSQVTVSS", "polyreactivity (PSR sort gate)": "low polyreactivity"}, {"sequence": "QVQLVESGGGLVQAGGSLRLSCAASGSIFGYYALGWSRQAPGKERELVAVITWNTGNTYYADSVKGRFTISRDNAKNTVYLEMNSLKPEDTAVYYCAADQTGWGDTYDYWGQGTQVTVSS", "polyreactivity (PSR sort gate)": "low polyreactivity"}, {"sequence": "QVQLVESGGGLVQAGGSLRLSCAASGSIFGYYAMGWYRQAPGKEREFVAAIRSSGGSTYYADSVKGRFTISRDNAKNTVYLQMNSLKPEDTAVYYCAAGGYPTFFKYGYWGQGTQVTVSS", "polyreactivity (PSR sort gate)": "high polyreactivity"}, {"sequence": "QVQLVESGGGLVQAGGSLRLSCAASGSIFGYYAMGWYRQAPGKEREFVAAISVSGSRTYYADSVKGRFTISRDNAKNTVYLQMNSLKPEYTAVYYCAARVDYRHRYYYWGQGTLVTVSS", "polyreactivity (PSR sort gate)": "high polyreactivity"}, {"sequence": "QVQLVESGGGLVQAGGSLRLSCAASGSIFGYYAMGWYRQAPGKERELVAAIRVSGGRTYYADSVKGRFTISRDNAKNTVYLQMNSLKPEDTAVYYCAKSLIPAYEYWGQGTQVTVSS", "polyreactivity (PSR sort gate)": "high polyreactivity"}, {"sequence": "QVQLVESGGGLVQAGGSLRLSCAASGSIFGYYAMGWYRQAPGKERELVAAISGNGGNTYYADSVKGRFTISRDNAKNTVYLQMNSLKPEDTAVYYCNRAPGYRGGRYDYWGQGTQVTVSS", "polyreactivity (PSR sort gate)": "high polyreactivity"}, {"sequence": "QVQLVESGGGLVQAGGSLRLSCAASGSIFGYYAMGWYRQAPGKERELVAAISRRGGSTYYADSVKGRFTISRDNAKNTVYLQMNSLKPEDTAVYYCAAVGGYASYFHLYYYWGQGTQVTVSS", "polyreactivity (PSR sort gate)": "high polyreactivity"}, {"sequence": "QVQLVESGGGLVQAGGSLRLSCAASGSIFGYYAMGWYRQAPGKERELVAAISSSGASTYYADSVKGRFTISRDNAKNTVYLQMNSLKPEDTAVNYCNAARRYPTRGGYWGQGTQVTVSS", "polyreactivity (PSR sort gate)": "high polyreactivity"}, {"sequence": "QVQLVESGGGLVQAGGSLRLSCAASGSIFGYYAMGWYRQAPGKERELVAAISWSDGSTYYADSVKGRFTISRDNAKNTVYLQMNMLKPEDTAVYYCAARFTPYITSDDGHYDYWGQGTQVTVSS", "polyreactivity (PSR sort gate)": "low polyreactivity"}, {"sequence": "QVQLVESGGGLVQAGGSLRLSCAASGSIFGYYAMGWYRQAPGKERELVAAISWSGGSTYYADSVKGRFTISRDTAKNTVYLQMNSLKPEDTAVYYCAATSRGNDSQKYYYWGQGTQVTVSS", "polyreactivity (PSR sort gate)": "low polyreactivity"}, {"sequence": "QVQLVESGGGLVQAGGSLRLSCAASGSIFGYYAMGWYRQAPGKERELVAAISYGGGRTYYADSVKGRFTISRDNAKNTVYLQMNSLKPEDTAVYYCAADVQSRYVGEGDYWGQGTQVTVSS", "polyreactivity (PSR sort gate)": "high polyreactivity"}, {"sequence": "QVQLVESGGGLVQAGGSLRLSCAASGSIFGYYAMGWYRQAPGKERELVAAITRVSSTNYADSVKGRFTISRDNAKYTVYLHMNSLKPEDTAVYYCAARTLRYYQGNTWGDDYWGQGTQVTVSS", "polyreactivity (PSR sort gate)": "high polyreactivity"}, {"sequence": "QVQLVESGGGLVQAGGSLRLSCAASGSIFGYYAMGWYRQAPGKERELVAAITSGGNTYYADSVKGRFTISRDNAKNTVYLQMNSLKPEDTAVSYCAAEFWYTYPYLVDYWGQGTQVTVSS", "polyreactivity (PSR sort gate)": "low polyreactivity"}, {"sequence": "QVQLVESGGGLVQAGGSLRLSCAASGSIFGYYAMGWYRQAPGKERELVAAITTRGGRTYYADSVKGRFTISRDNAKNTVYFQINSLKPEDTAVYYCAARTGRGRYDYWGQGTQVTVSS", "polyreactivity (PSR sort gate)": "high polyreactivity"}, {"sequence": "QVQLVESGGGLVQAGGSLRLSCAASGSIFGYYAMGWYRQAPGKERELVAAIWRGDNTYYADSVKGRFTISRDNAKNTVYLQMNSLKPEDTAVYYCAARYWSRRIFREGYWGQGTQVTVSS", "polyreactivity (PSR sort gate)": "low polyreactivity"}, {"sequence": "QVQLVESGGGLVQAGGSLRLSCAASGSIFGYYAMGWYRQAPGKERELVAVIRRSSGSTYYADSVKGRITISRDNAKKTVYLQMNSLKPEDTAVFYCASRRYEPIIWHSMDYWGQGTQVTVSS", "polyreactivity (PSR sort gate)": "low polyreactivity"}, {"sequence": "QVQLVESGGGLVQAGGSLRLSCAASGSIFGYYAMGWYRQAPGNERELVAAISFSAGNTYYADSVKGRFTISRDNAKNTVYLQMNSLKPEDSAVYYCAADPKYWTGWIWTSGYDYWGQGTQVTVSS", "polyreactivity (PSR sort gate)": "high polyreactivity"}, {"sequence": "QVQLVESGGGLVQAGGSLRLSCAASGSIFGYYTMGLYRQAPGKERELVATINWSGGSTYYADSVKGRFTISRDNAKNTVYLQMNSLKPEDTAVYYCAKTRPYLRYWDSSTYDYWGQGTQVTVSS", "polyreactivity (PSR sort gate)": "high polyreactivity"}, {"sequence": "QVQLVESGGGLVQAGGSLRLSCAASGSIFGYYTMGWYRQAPGKERELVARISSSGARTYYADSVKGRFTISRDNAKNTVYLQMNSLKPEDTAVYYCNAQFGYRTIYYISQYYEYGYWGQGTQVTVSS", "polyreactivity (PSR sort gate)": "high polyreactivity"}, {"sequence": "QVQLVESGGGLVQAGGSLRLSCAASGSIFGYYVMGWYRQAPGKERELVAAISRSGGSTYYADSVKGRFTISRDNAKNTVYLQMNSLIPEATAVYYCAARGTAERDYWGQGNQVTVSS", "polyreactivity (PSR sort gate)": "high polyreactivity"}, {"sequence": "QVQLVESGGGLVQAGGSLRLSCAASGSIFGYYVMGWYRQAPGKERELVAAITRSGSTYYADSVKGRFTISRDNAKNTVYLQMNSLKPEDTAVYYCAADGSYYWYPHTTYDYWGQGTQVTVSS", "polyreactivity (PSR sort gate)": "low polyreactivity"}, {"sequence": "QVQLVESGGGLVQAGGSLRLSCAASGSIFHDYAMGWYRQAAGKERELVAVISTSGGSTYYADSVKGRFTISRDNAKNTVYLQMNSLKPEDTAVYYCAADPFDGYSSSEYDYWGQGTQVTVSS", "polyreactivity (PSR sort gate)": "low polyreactivity"}, {"sequence": "QVQLVESGGGLVQAGGSLRLSCAASGSIFHIYAMGWYRQAPGKERELVAAISSGGRTNYADSVKGRFTISRDNAKNTVYLQMNSLKPEDTEVYYCAADWIYLPTRNYRVRVDYWGQGTQVTVSS", "polyreactivity (PSR sort gate)": "high polyreactivity"}, {"sequence": "QVQLVESGGGLVQAGGSLRLSCAASGSIFHKYTMGWYRQAPGKERELVAAITRSGGSTYYADSVNGRFTISRDNAKNTVYLQMNSLKAEDTAVYYCNKRYIPWAYDYWGQGTKVTVSS", "polyreactivity (PSR sort gate)": "high polyreactivity"}, {"sequence": "QVQLVESGGGLVQAGGSLRLSCAASGSIFHNYDMGCYRQAPGKERELVADISRGGDTNYADSVKGRFTISRDNAKNTVYLQMNSLKPEDTAVYYCSADSADPTEYDYWGQGTQVTVSS", "polyreactivity (PSR sort gate)": "low polyreactivity"}]}]}
